Assay results from PMC10626418.
Non-standard residues stand in square brackets, D forms with d. Groups on a side chain read outwards from the residue. Primed or numbered codes have the meaning given here. No end group written: not given here. *: point of attachment. Biotin = O=C1N[C@H]2[C@H](CS[C@H]2CCCCC(=O)*)N1; PEG2′ = not defined here

Target: I-E^k (murine MHC class II molecule, surface-resident on BMDCs and B-cells) (mouse (endogenous in BMDCs and B-cells of B10.A mice))
Assay: flow cytometry on cells; B-cells and BMDCs pulsed with 25 and 50 uM MCC-PEG2-biotin for up to 36 h (with LPS), stained with saturating mSav-AF647 or 14.4.4 scFV-AF647 (10 ug/ml); ratio of the MFIs

proportion of surface-resident I-E^k loaded with the peptide: < 17%
Binder: ANERADLIAYLKQATK[dS][dS][dC]([maleimide-PEG2′-Biotin]) [C-terminally biotinylated MCC peptide 88-103 derivative (MCC-PEG2-biotin)]
